Results reported in US20070015232A1, “Mitotic index assay” (DiscoveRx, Inc., priority 2005, published 2007).

Columns and labels:
[1] = biological target: EA-NLS/NRS (β-galactosidase enzyme acceptor fragment fused to a nuclear localization signal / nuclear retention signal) (E. coli) [β-galactosidase: P00722]; assay: cell-based or functional assay
[2] = biological target: cyto-EA (β-galactosidase enzyme acceptor fragment localized in the cytoplasm) (E. coli) [β-galactosidase: P00722]; assay: cell-based or functional assay

EFC (β-galactosidase chemiluminescence after lysis), CHO-K1 pool, Taxol, nocodazole and colchicine overnight [1] | EFC activity (β-galactosidase chemiluminescence after lysis), C2C12 cells, nocodazole 1-10 µg/mL [1] | EFC activity, CHO-K1 clone #69, nocodazole and colchicine [1] | EFC activity, CHO-K1 cyto-EA cells transiently transfected with cJUN-PL, nocodazole and colchicine [2] | Substance
< 4 fold | 2 fold | 3 to 4 fold |  | GR-PL (human glucocorticoid receptor fused to PL, a 55 mer α-fragment of β-galactosidase) (from UniProt P04150 1-777)
 |  |  | 2.1 fold | cJUN-PL (c-Jun fused to the PL β-galactosidase enzyme donor fragment)
